Experimental data reported in the supplement of paper PMC9170038.

System: MS2 coat protein
Test: apparent KD of MS2 coat protein; designed switch direction (-1 OFF switch, 1 ON switch): -1; higher = weaker reporter binding
Summary of the method: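 Designed RNA switches with common flanks were made on Illumina chips by stalled E. coli RNA polymerase. Titration with SNAP-549-labelled MS2 coat protein doubled from 0.7 or 1.5 nM up to 3 µM. Apparent KD is each design's median over clusters after curve-fitting normalised fluorescence.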

[1] = Eterna round: R95, input ligand: FMN 200 uM
[2] = Eterna round: R95, input ligand: microRNA oligo, concentration not stated
[3] = Eterna round: R95, input ligand: none
[4] = input ligand: microRNA oligo, concentration not stated

Row | Sequence | apparent KD of MS2 coat protein [2] [nM] | apparent KD of MS2 coat protein (input ligand: FMN 200 uM) [nM] | apparent KD of MS2 coat protein (input ligand: none) [nM] | apparent KD of MS2 coat protein [4] [nM] | further results
1 | UGUACUAUGCGAGCUGACUUGCGUAGUGCAGCAGGUGUUACAUGAGGAUCACCCAUGUCCUCAUUUGCUCGUCUUAU [SL-sv3-2.04 JL mod] (puzzle: Sensor v3, turn-off variant 2) | 231 | – | – | – | apparent KD of MS2 coat protein [1]: 289 nM; apparent KD of MS2 coat protein [3]: 200 nM
2 | UGUGCGUAUGUGAGGAUAUGCUGGUCCUUGGAUCAGCAGAAGGCACAUGAGGAUCACCCAUGUGGUGUCGUACG [salish99_Bmod_Ex4_008] (puzzle: Brourd's mod of Exclusion 4) | 96.9 | – | – | – | –
3 | UGUUAAGCAGGAUAUACGUUGUCCUAUUAAACUAGUGAAGGACAUGAGGAUCACCCAUGUAGAAGGGCUAAGCG [Eternabot (L2) Solution 70] (Eterna round: R97, puzzle: Exclusion 2) | – | 85.2 | 83.7 | – | –
4 | UGUUGUCGCGCAGGAUAUGAGGAUCACCCAUAUAAAGGAUAUGAAAAGAAGGUUCUGAGGAUCACCCAGAAGGGCGGGACAACU [pwkr exNG2 2xF5 2xFMN.18] (Eterna round: R96, puzzle: Exclusion NG 2) | – | 347 | 62.6 | 49 | –
5 | UGUUGUCGCGUAGGAUAUGAGGAUCACCCAUAUAGAGGAUAUGAAAAGAAGGCUCUGAGGAUUACCCAGAAGGACGGGACAACU [pwkr exNG2 2xF5 2xFMN.22] (Eterna round: R96, puzzle: Exclusion NG 2) | – | 1180 | 155 | 132 | –
6 | UGUUGUUACGCAGGAUAUGAGGAUCACCCAUAUCAGGAUAUCGAAAGAGAACUUCUGAGGAUCACCCAGAAGGGCGGGUUAACA [pwkr exNG2 2xF5 2xFMN.38] (Eterna round: R96, puzzle: Exclusion NG 2) | – | 16.9 | 21.2 | 13.6 | –
7 | UGUUGUUACGCAGGAUAUUGUCAACAGGCAAUAGGAUAUCCGAAAGGAGAAGGAUCGCCAACAGGCGAGAAGGGCGGGUUAACA [pwkr exNG2 2xF7 2xFMN.1] (Eterna round: R96, puzzle: Exclusion NG 2) | – | 133 | 2630 | 1580 | –
8 | UGUUGUUACGUAGGAUAUGGCCAACAGGCCCUAGGAUAUGCGAAAGCAGAAGGAGCGCCAACAGGCGAGAAGGACGGGUUAACA [pwkr exNG2 2xF7 2xFMN.15] (Eterna round: R96, puzzle: Exclusion NG 2) | – | 50.2 | 60.5 | 78.2 | –
9 | UGUUGUUCAGGAUAUGAUGUAUAAUACAUGAGGAUCACCCAUGUAGAUCCUGAAUUAGCGUCAGAAGGGAAUGUUG [salish99_ex5_r4_104] (Eterna round: R97, puzzle: Exclusion 5) | – | 18 | 21.1 | – | –
10 | UGUUGUUCAGGAUAUGAUGUAUUAUACAUGAGGAUCACCCAUGUGGGUCCUGAUUUGGCGUCAGAAGGGAAUGUUG [salish99_ex5_r4_110] (Eterna round: R97, puzzle: Exclusion 5) | – | 205 | 150 | – | –
11 | UGUUGUUGAUAGGAUAUACUUGUAGGAGUAGGAGUAGAAGGAUCUACAUGAGGAUCACCCAUGUAGGAGUGAGA [JR_E6_Sub003] (puzzle: Exclusion 6) | 16.6 | – | – | – | apparent KD of MS2 coat protein [1]: 18.2 nM; apparent KD of MS2 coat protein [3]: 15.7 nM
12 | UGUUGUUGAUAGGAUAUACUUGUAGGAGUUGUAGUAGAAGGAUCUACAUGAGGAUCACCCAUGUAGGAGUGAGU [JR_E6_Sub004] (puzzle: Exclusion 6) | 15.6 | – | – | – | –
13 | UUAAACGGAGGAUAUACAUUUUUUUUAUUAUCCUCAUUAAAACAUGAGGAUCACCCAUGUAGAAGGCCGAAAUU [Mat - Exclusion 2 - Mod of Hog - D86] (puzzle: Exclusion 2) | 91.5 | – | – | – | –
14 | UUAAAUCAUGUAGGAUAUGCGUGGCGAAGCUAUGCAGAAGGACAUGAGGAUCACCCAUGUUCUAGCGUCUGCGAACAGAUGCAA [Mat - Exclusion NG 1 - Mod of JL - D1] (Eterna round: R96, puzzle: Exclusion NG 1) | – | 120 | 16.9 | 12.2 | –
15 | UUAAAUCAUGUAGGAUAUGCGUGGCGAAGCUAUGCAGAAGGACAUGAGGAUCACCCAUGUUCUUGCGUCUGCGUACAGAUGCAA [JL ENG1 1.09] (Eterna round: R96, puzzle: Exclusion NG 1) | – | 118 | 37.2 | 26 | –
16 | UUAACAUGCUGGUGAUCAUACAUGAGGAUCACCCAUGUAACAAGCUUUUUGCUCGUCUUAAUUUAAUUGAUUACUAG [Stov1/8-A1] (Eterna round: R97, puzzle: Sensor, turn-off variant 1) | – | 120 | 134 | – | –
17 | UUAAUGACUGUGAGGAUAUCGGAUAGAUAGAUAUUUGAGAAGGUACAUGAGGAUCACCCAUGUGUGAUUAGAGA [Brourd's EX4 #66] (Eterna round: R97, puzzle: Brourd's mod of Exclusion 4) | – | 246 | 253 | – | –

Row | Sequence | apparent KD of MS2 coat protein [2] [nM] | apparent KD of MS2 coat protein (input ligand: FMN 200 uM) [nM] | apparent KD of MS2 coat protein (input ligand: none) [nM] | apparent KD of MS2 coat protein [4] [nM] | further results
18 | UUAAUGAUUGUGAGGAUAUUUCAUAGAUAGAUAUUAGAGAAGGUACAUGAGGAUCACCCAUGUGUGAUUAGAGA [Brourd's EX4 #71] (Eterna round: R97, puzzle: Brourd's mod of Exclusion 4) | – | 89.7 | 93.5 | – | –
19 | UUAAUGUCAGGAUAUGCUUAAUAUAUUAUAUUAUAAUAUAUACAUGAGGAUCACCCAUGUAGAAGGGACAUUAU [LRO-Excl2-03-Fireball XL5] (Eterna round: R97, puzzle: Exclusion 2) | – | 26.8 | 38.2 | – | –
20 | UUAAUGUGAGGAUAUCAGGUGUGCUAGCGUACUGGUACAUCUGAGAAGGCACAUGAGGAUCACCCAUGUUCCUG [JL-ex4-3.28 Brourd mod] (puzzle: Exclusion 4) | 20.6 | – | – | – | –
21 | UUAAUUCGGAUUCUUGAAAUACAUGAGGAUCACCCAUGUUCACAGGAUAUUGAUUAUGUUAGUAACAAGAAGGGUGUAACAUAU [JR_ExcNG3_Sub036] (Eterna round: R96, puzzle: Exclusion NG 3) | – | 87.1 | 28.7 | 31 | –
22 | UUACGACAUGAGGAUCACCCAUGUUAGGAUAUGUGGCGAGAGCGCUAGCCUCGGGCCAACAGAAGGAAUAGGGC [Eternabot (L2) Solution 35] (Eterna round: R97, puzzle: Exclusion 1) | – | 53.4 | 58.5 | – | –
23 | UUACUAUGUCGCCUAAUAGCUUUUUGCUCGUCUUAUAUUACAUGAGGAUCACCCAUGUAGAUCAUGUGGCGUGACCU [JL ViennaUCT Maridi mod 4] (puzzle: Sensor v3, turn-off variant 2) | 39.1 | – | – | – | apparent KD of MS2 coat protein [1]: 246 nM; apparent KD of MS2 coat protein [3]: 217 nM
24 | UUACUAUGUCGCUUAAUAGCUUUUUGCUCGUCUUAUAUUACAUGAGGAUCACCCAUGUAGAUCAUGUGGCGUGACCU [JL ViennaUCT Maridi mod 6] (puzzle: Sensor v3, turn-off variant 2) | 36 | – | – | – | apparent KD of MS2 coat protein [1]: 247 nM; apparent KD of MS2 coat protein [3]: 237 nM
25 | UUAGAUUAUGAAGGAUAUGGAUCUUAUUAUUAACCAGAAGGUCAACUCAACAUGAGGAUCACCCAUGUAUAAAGGGUAUUAGUU (Eterna round: R96, puzzle: Exclusion NG 1) | – | – | – | 109 | –
26 | UUAUACGUUGAGGAUAUGCGACUGUUUUAAGUUGUAGAAGGCGAUACAUGAGGAUCACCCAUGUUUAUGGGCAU [LRO-Ex6-12] (puzzle: Exclusion 6) | 169 | – | – | – | –
27 | UUAUAUAGGUAGGAUAUCGAUUUUAAUUAAUUUCGAGAAGGGUCAACAUGAGGAUCACCCAUGUCAGCAUGUAU [LRO-Excl6-05-Rocketman] (Eterna round: R97, puzzle: Exclusion 6) | – | 45.6 | 51.4 | – | –
28 | UUAUAUAGUGUGAGGAUAUGCUGGUCCUUGGAUCAGCAGAAGGCACAUGAGGAUCACCCAUGUAAUAUAUUAUU [JL bmx4 3.07] (puzzle: Brourd's mod of Exclusion 4) | 58.2 | – | – | – | –
29 | UUAUUAAGUGUGAGGAUAUGCUGGUCCUUGGAUCAGCAGAAGGCACAUGAGGAUCACCCAUGUACUUUAUUUUA [JL bmx4 3.04] (puzzle: Brourd's mod of Exclusion 4) | 15.5 | – | – | – | –
30 | UUAUUAAUUAAUAUUAUAAGAUCACAUGAGGAUCACCCAUGUCAGGAUAUCAGCUCGUUUAGAGCUGAGAAGGGACAAAUAAUA [ExNG3/15-B2] (Eterna round: R96, puzzle: Exclusion NG 3) | – | 118 | 189 | 187 | –
31 | UUAUUAUAUGUAGGAUAUGCAUAUUAUUAUUAUGCAGAAGGACAUGAGGAUCACCCAUGUAUGUUGUUAUUAUAUAUUAUAUAU [Title] (Eterna round: R96, puzzle: Exclusion NG 1) | – | – | – | 20.6 | –
32 | UUAUUAUAUGUAGGAUAUGCAUAUUGUUAUUAUGCAGAAGGACAUGAGGAUCACCCAUGUAUAUUAUUAUUAUAUAUUAUAUAU [Title] (Eterna round: R96, puzzle: Exclusion NG 1) | – | – | – | 23.3 | –
33 | UUCAGUCAUCCUUAUUGUUACAUGAGGAUCACCCAUGUUUGUUUAAUUAAGUUUUGUAAGUUUGUUGUUCGUUUUAU [JR_STOV1_v2_Sub074] (Eterna round: R97, puzzle: Sensor, turn-off variant 1) | – | 154 | 173 | – | –
34 | UUCAUGUGAGGAUAUAGUACUCUUUCUAUUAUUAUUGAGUAUUAGAAGGCACAUGAGGAUCACCCAUGUAGUAC [Ex4 - 3 - 41] (puzzle: Exclusion 4) | 28.1 | – | – | – | –
